A short description of data set [1]: AT activity coupled with alanine and glutamate dehydrogenases. The following applies: 10 mM adipaldehyde, alanine and glutamate amino-donors; ND = no activity was detected. In kind it is biochemical.
The nature of data set [2]: Whole-cell biotransformation of muconic acid by E. coli expressing EREDs. The note with it: 0.7 mM, 24-hr incubation. In kind it is cell-based. As to the method: After a 24-hr incubation, no muconic acid or 2-hexenedioic acid were detected in the culture, and a 99% yield of adipic acid was obtained (FIGS. 8a, 8b, and 8c). […] The 3-hexenedioic acid-like compound appears to be an inefficient substrate for these EREDS. This is similar to the mutated 2,4-dienoyl-CoA reductases from E. coli, which catalyze hydrogenation of 2,4-dienoyl CoA into 3-enoyl CoA (Tu, X., Hubbard, P. A., Kim, J. J. P. & Schulz, H. Two distinct proton donors at the active site of Escherichia coli 2,4-dienoyl-CoA reductase are responsible for the formation of different products. Biochemistry 47, 1167-1175 (2008).).

B1: gabT: aminotransferase (AT) from Escherichia coli (protein)
chain: MNSNKELMQRRSQAIPRGVGQIHPIFADRAENCRVWDVEGREYLDFAGGIAVLNTGHLHPKVVAAVEAQLKKLSHTCFQVLAYEPYLELCEIMNQKVPGDFAKKTLLVTTGSEAVENAVKIARAATKRSGTIAFSGAYHGRTHYTLALTGKVNPYSAGMGLMPGHVYRALYPCPLHGISEDDAIASIHRIFKNDAAPEDIAAIVIEPVQGEGGFYASSPAFMQRLRALCDEHGIMLIADEVQSGAGRTGTLFAMEQMGVAPDLTTFAKSIAGGFPLAGVTGRAEVMDAVAPGGLGGTYAGNPIACVAALEVLKVFEQENLLQKANDLGQKLKDGLLAIAEKHPEIGDVRGLGAMIAIELFEDGDHNKPDAKLTAEIVARARDKGLILLSCGPYYNVLRILVPLTIEDAQIRQGLEIISQCFDEAKQ
Regarding B1, the “Adipaldehyde 10 mM U/mg” value in data set [1] was 0.337 ± 0.008 U/mg.

B2: EREDCK: 2-enoate reductase (ERED) from Clostridium kluyveri DSM 555 (protein)
chain: MKNKSLFEPIKIGNMEVKNKIAMAPMGAFGLVDNECCFNQRAVDYYVERAKGGTGLIITSVVKVENELDKVLTGVLPITSINPAKFIMTSSEMTERVHAYGSKIFLQLSMGFGRSGAPGGLLTSQPVSASAVPNYWDPTVTCRELTTSEVEWIVEKFAEGAKIAHKAGFDGVEIHAVHEGYLLDQFTLSIFNRRTDKYGGDLRGRLQLPIEIVEAIKTEVGSNFPVGLRYSVKSCIKDWGQGGLAEEDYVEKGRDLEEGLEAAKILEAAGYDAFNADLGTYDAWYWAHPPLYQKDGLYLPYTKELKKVVKIPVMVAGKMGMPDVAEGALEDEAADMVTLGRPLLCDAYWPKKVFTGQIDRIRPCIGCHTGCMGRGFEGRPLSCTVNPAAGRERYYEVKPAAAPKKVMIVGGGVAGMEAARITAMRGHKVSMYEGTKELGGQVIPASVPDFKIDDRRLLDWYRNEMKELKVKLVLDTNVTEEVVEKEKPDVVIIATGAKEIKLNLPGIEKDKVATVIEVLKGSKQVGENVLMVGGGLAGCETALYLAKQGKKVTIIEARDTILNAGKPVPHMNKIMLIDLLKNSGVNIITETSLLEVTDRGAILIDNKFKKQNIDADTVVIAVGFKADRELYNKLRDKVADLYLVGDANESANIMNAIWSANEIALNC
In the case of B2, the “yield of adipic acid from trans,trans-muconic acid” value in data set [2] turned out to be 99%.

These data come from patent US12371675B2, “Process and microorganism for synthesis of adipic acid from carboxylic acids” (THE GOVERNING COUNCIL OF THE UNIVERSITY OF TORONTO, priority 2015, dated 2025).
